These results are taken from the nanobody polyreactivity screen of Harvey et al. (2022).

A short description of the series: yeast display, Sf9 membrane polyspecificity reagent, FACS + sequencing; frameworks hold sequencing errors. An outline of the steps:
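Polyreactivity labels are assigned by the sorting gate from which each nanobody was recovered. The gates were low and high (top ~1%), set on anti-HA fluorescence for expression and streptavidin fluorescence for reagent binding. Before sorting, galactose-induced (36–48 hours) yeast display cells were stained for 1 hour at 4 °C with 10% biotinylated, detergent-solubilized Sf9 membrane reagent.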
Take “QVQLVESGGGLVQAGGSLRLSCAASGNTFGYYALGWYRQAPGKERELVAGISSGGSTNYADSVKGRFTISRDNAKKTVYFQMNSLKPEDTAVYYCNARRYWLRYDYWGQVTQVTVSS”: the “polyreactivity (PSR sort gate)” value is reported as “low polyreactivity”.

Turning to “QVQLVESGGGLVQAGGSLRLSCAASGFTFARYTRVWSRQAPGKERELVAAISKRGTSTYYADSVKGRFTISRDNAQNTVYLQMNSLKAEDTAVYYCAATPGTGYGDYDYWGQGTQVTVSS”, the “polyreactivity (PSR sort gate)” value is given as “high polyreactivity”.

Take “QVQLLESGVGLVQAGGSLRLSCAASGFTFGYYAMGWYRQAPGKETELVAAISSSDGSTYYADSVKGRFTISRDNAKNTVYLQMNSLKPEDTAVYYCAAEYYSAVYIDEYWYDYWGQGTQVTVSS”: the “polyreactivity (PSR sort gate)” value is “high polyreactivity”.

Turning to “QVQLVESGGVLVQAGGSLRLSCAASGSIFEPYVMGWYRQPPGKERELVAAIRQSGGSTYYADSVKGRFTISRDNAKNTVYLQMNSLKPEDTAVYYCNAEQNPSGLYDYRGVEGEMGYWRQGTQVTVSS”, the “polyreactivity (PSR sort gate)” value is “low polyreactivity”.

Take “QVQLEESGGGLVQAGGSLRLSCAASGSTFAPNAMGWYRAAPGKEMELVASIRRGGSTHYADSVKGRFTISRDNAKNTVYFQMNSLQPEDTAVYYCAAEFRDVSSNGYDFLGQGTQVTVSS”: the “polyreactivity (PSR sort gate)” value is listed as “low polyreactivity”.

Consider “QVQLVESGGGLVQAGGSLRLSCAASGFTFPVYAMGWYREAPGKERELVAAISTSAGSTYYADSVKGRFSISRDNAKNTVYLQLNSLKPEDTAVYYCNADVAGGYGWKSYHGYDYWGQGTQVTVSS”, for which the “polyreactivity (PSR sort gate)” value is given as “high polyreactivity”.

Take “QVQLVESGGGLVQAGGSLRLSCAASGRTFYRYAMGWYRQAPGKERELVARITNRGGITYYADSVKGRFTISRDNAKNTVYLQMNSLKPEDTAVYYCAADPIGYTWAGTHGDYYNEHDYWGQGTQVTVSS”: the “polyreactivity (PSR sort gate)” value was “low polyreactivity”.

Turning to “QVQLVESRGGIVQAGGSLRLSCAASGRIFSRYAMGWSRQAPGKEREMVAAISWSGGSTFYADSVKGRFTISRDNAKNTVYLQMNSLKPEDTAVYDCAAYPRFYGGKDGEYGYWGQGTQVTVSS”, the “polyreactivity (PSR sort gate)” value was “high polyreactivity”.

On to “QVQLVESAGGLVQEGGSLRLSCAASGRIFGPYALGWYRQAPGKERELVAAISFSGSGTYYAASVKGRFTISRDNANNTVYLQIYSLKPEDNAVYYCAADGVYIDSNNRNTSDYWGQGTQVTVSS”, for which the “polyreactivity (PSR sort gate)” value is given as “low polyreactivity”.

“QVQLVESGGGLVQAGGSLRLSCAASGSIFSFYTMGWYRQAPGKERELVAAINWSGSRTYYADSVKGRFTISRDNAKKTVYLQMNSLNPEDTAVYYCAARKYYSRAYDYWGQGTQVTVSS”: the “polyreactivity (PSR sort gate)” value is “high polyreactivity”.

Take “QVQLVESGGGLVQAGGSLRLSCAASGSILTLYSMGWYRQAPGKERELVAAISSTGGRTYYADSVKGRFTISRDNAKNTVYVQMNSLKPEDTAFYYCAARGWGGLRSYGYYYWGQGTQVTVSS”: the “polyreactivity (PSR sort gate)” value is recorded as “high polyreactivity”.

Turning to “QVQLVESGGGLVQAGGSLRLSCAASGSTFEDNTMGWYRQAPGKEREFVADISNIGGDTTYADSVKGRFTISRDNAKNTVYLQMNSLKPEDTAVYYCAAVKGHSQVLSYGYWGQGTQVTVSS”, the “polyreactivity (PSR sort gate)” value is reported as “low polyreactivity”.

Take “QVQLVESGGGLVQAGGILRLSAASGSTLAGNTMGWYRQAPGKERELVAAINDSGGSTYYADSVKGRFTISRDNAKNTVYLQMNSLKPEDTAVYYCNADGSAYIEDGYDYWGQGTQVTVSS”: the “polyreactivity (PSR sort gate)” value is “low polyreactivity”.

For “QVQLVESGGGLVQAGGSLRLSCAASGRIFPYYVMGWYRQAPGKERELVASISSGGNTNYADSVKGRFTISRDNAKNTVYLQMNSLKPEDTAVYYCAARWRRKGYYWARFDYWGQGTQVTVSS”, the “polyreactivity (PSR sort gate)” value is given as “high polyreactivity”.

As for “QVQLVESGGGLVQAGGSLRLSCAASGSTFYLNDMGWYRQAPGKERELVAAIDWSGGSTYYAVSVKGRFTISRDNAKNTVYLQMNSLKPEDTAVYYCAARLVYEWRRLDYFIAWDYWGQGTQVTVSS”, the “polyreactivity (PSR sort gate)” value is given as “low polyreactivity”.

Consider “QVQLVESGGRLVQAGGSLRLSCAASGSIFYDNAMGWYRQAPGKERELVAVITVSGDSTYYADSVKGRFTISRDNAKNTVYLQMNSLKPEDTAVYYCNTDAISGSHFWRYITFGYLDDYWGQGTQVTVSS”, for which the “polyreactivity (PSR sort gate)” value is on record as “low polyreactivity”.

On to “QVQLVESGGGLVQAGGSLRLSCAASGSTLVDYAMGWYRQAPRKERELVATISFRGGSTYYADSVKGRFTISRDNAKNTVYLQMNSLKPEDTAVYYCAREYGDGYEYWGQGTQVTVSS”, for which the “polyreactivity (PSR sort gate)” value is “low polyreactivity”.

As to “QVQLVESGGGLVQAGGILRLSCAASGFIFVRYAMGWYRQAPGKERELVAAISWRGGSTYYADSVKGRFTISRDNAKNTVYLQMNSLKPEDTAVFYCSAVTWVHRYSRFHPFVAFDYWGQGTQVTVSS”, the “polyreactivity (PSR sort gate)” value was “high polyreactivity”.

For “QVQLVDSGGGLVQAGGSLRLTCAASGSTIYWYAMGWYRQAPGKERELVAAISSSGSTKYADSVKGRFTISRDNAKNNVYLQINSLKPEDTAVYYCAADVEYDRDVPQQVYVSDDYWGQGTKVTVSS”, the “polyreactivity (PSR sort gate)” value is recorded as “low polyreactivity”.

Turning to “QVQLVESGGGLVQAGGILRLSCAASGRTFNSNAMGWYRQAPGKERELVAAITGGGGRTYYADSVKGRFTISRDNAKNTVYLQMNSVKPEDTAVYYCYAARWYRGYDYWGQVTQVTVSS”, the “polyreactivity (PSR sort gate)” value is listed as “high polyreactivity”.

“QVQLVESGGRLVQAGGSLRLSCAASGRTFTRNAMGWYRQAPGKERELVAAISWSGGSTYYADSVKGRFTISRDNAKNTVYLQMNSLKPEDTAVYYCAARIWYYNYWGQGTQVTVSS”: the “polyreactivity (PSR sort gate)” value is reported as “high polyreactivity”.

Consider “QVQLVESGGGLVQAGGSLRLSCAASGRTFYYNVMGWYRQAPGKESELVAAITNSGSTNYADSVKGRFTISRDNAKNTVYLQMNSLKPEDTAVYYCAARITYYGRKRGSRDYWGQGTQVTVSS”, for which the “polyreactivity (PSR sort gate)” value is “high polyreactivity”.

With “HVQLVESGGGLVQAGGSLRLSCAASGSTFTRYVMGWYRQAPGKERELVAAISSGVSTYYADSVKGRFTISRDNAKNSVYLQMNSLKPEDTAVYYCDANRYRAREYKYWGQGTQVTVSS”, the “polyreactivity (PSR sort gate)” value is reported as “high polyreactivity”.

On to “QVQIVESGGGLVQAGGSLRLICAASGRIFYRYAMGWYRQAPGKERELVAAISSGSSTNYADSVKGRFTISRDNAKNTVYLQMNSLKPEDTAVYYCNAERYGKSWRYCYWGQGTQVTVSS”, for which the “polyreactivity (PSR sort gate)” value is reported as “high polyreactivity”.

“QVQLVESGGGKVQAGGSLRLSCAASGRILHEYAMGWYRQAPGKERELVAAITFSGTSTYYADSVKGRFTISRDNAKNTVYLQMYSLKPEDTAVYYCAADTYGGSRDYWGQGTQVTVSS”: the “polyreactivity (PSR sort gate)” value is on record as “low polyreactivity”.

Take “QVQLVESGGGLVQAGGSLRLSCAASGSIFRRYAMGWYRQAPGKERELVAAISGSAGSTYYADSVKGRFTISRDNAKNTVYLQMNSLKPEDTAVYYCKTDRSRSPGDVESASDIKRDYWGQGTQVTVSS”: the “polyreactivity (PSR sort gate)” value was “low polyreactivity”.

Consider “QVQLVESGGGLVQAGGSLRLSCAASGSIFRIYAMGWYRHAPGKERELVAAITGRGGSTYYADSVKGRFTISRDNEKNTVYLQMNSLKPEDTAVYYCAAEERYAYRYDYWGQGTQVTVSS”, for which the “polyreactivity (PSR sort gate)” value is on record as “high polyreactivity”.

Regarding “QVQLVESGGGLVQAGGSLRLSCAASGFFFAGYAMGWYRQAPGKERELVAAISSGGGSTYYADSVKGRFTISRDNAKNTVYLQMNSLKPEDTAVYYCAARRLYPPGYYYWGQGTQVTVSS”, the “polyreactivity (PSR sort gate)” value was “high polyreactivity”.

For “QVQLVESGGGLVQAGGSLRLSCAASGSTFALYAMGWSRPAPGKERELVAAITWSGTGTYYADSVKGRFTISRDNAKNTVYLQMNSLKPEDTAVYYCNAEYWWWGLGNDYWGQGTQVTVSS”, the “polyreactivity (PSR sort gate)” value is “low polyreactivity”.

“QVQLVESGGGLVQAGGSLRLSCAASGFIFRGYAMGWYRQAPGKERELVAAITSSGGDTYYADSVKGRFTISRDNAKNTVYLQMNSLKPEDTAVYYCAKRARRIGDVNMGSWGQGTQVTVSS”: the “polyreactivity (PSR sort gate)” value is “low polyreactivity”.

Regarding “HVQLVESGGGLVQAGGSLRLSCAASGSISHLYTMRWYRQAPGKERELVAAIRYSGGRTDYADSVKGRFTISRDNAKNTVYLQMNSLKPEDTAVYYCAATQLRRWYYHYGLDYWGQGTQVTVSS”, the “polyreactivity (PSR sort gate)” value is on record as “high polyreactivity”.

Turning to “QVQLVESGGGLVQAGGSLRLSCAASGRIFARNAMGWYIQAPGKEREFVAAITHSGGNTYYADSVKGRFTISRDNAKKTVYLQMNSLKPEDTAVYYCAKEYRSTKYDYWGQGTQVTVSS”, the “polyreactivity (PSR sort gate)” value was “low polyreactivity”.

As for “QVQLVESGGGLVQAGGSLRLSCAASGSIFGVYAMGWYRQAPGKERELVAAINSGGTTYADSVKGRFTISRDNAKNTVYLQMNSLKPEDTAVYYCNADRWGPEDPYRVRDRFDYWGQGTQVTVSS”, the “polyreactivity (PSR sort gate)” value is “low polyreactivity”.

For “QVQLVESGGGLVQAGGSLRLSCAASGNIFTQYGMGWYRQAPGKERELVAAISRRGGSTYYADSVKGRFTISRDNAKNTVYLQMNSLNPEDTAVYYCARRTNRPPWGFEYWGQGTQVTVSS”, the “polyreactivity (PSR sort gate)” value is reported as “high polyreactivity”.

As to “QVQLVESGGGLVQAGGSLRLSCAASGSIFYDNAMGWYRQAPGKERELVAAISGNDATTYYADSVKGRFTISRDNAKNTVYLQMNSLKPEDTAVYSCAADYVLNPWRTRYDYWGQGTQVTVSS”, the “polyreactivity (PSR sort gate)” value is reported as “low polyreactivity”.

“QVQLVESGGALVQAGGSLRVSCAASGRIFRRNAMGWDRPAPGKERELVAGIDRSGGSTYYADSVKRRFTISRDNGKKTVYIQMNSLKPEDTAVYYCNTRAPYRVKSSGYWGLGTQVTVSS”: the “polyreactivity (PSR sort gate)” value is “high polyreactivity”.

On to “QVQLLESGGGLVQAGGSLRLICAASGRIIYGYAMGWYRQAPGKERELVAAITATYYADSVKGRFTISRDNAKNTVYLQMKSLKPVDSGVYYCNAYLSPKQPLSTPDPSFEGGYWGQGTQVTVSS”, for which the “polyreactivity (PSR sort gate)” value is listed as “low polyreactivity”.

“QVQLVESGGGLVQAGGSLRLSCAASGSIFHQYAMGWYRQAPGKERELVAAISANGGRTYYADSVKGRFTISRDNAKNTVYLQMNSLIPEDTAVYYCAASRPSYGVRYGYWGQGTQVTGSS”: the “polyreactivity (PSR sort gate)” value was “high polyreactivity”.

For “QVQLVESGGGLVQAGGSLRLSCAASGFTFAGYAMGWYRQAPGKERELVAAISYSGGRTYYADSVKGRFTISRDNEKNTVYLQMNSLKPEDTAVYYCNADPAYYRGYYRQGYDYWGQGTQVTVSS”, the “polyreactivity (PSR sort gate)” value is “high polyreactivity”.

As to “QDQLVESGGGLVQAGGSLRLSCAASGSIFRYYAMGWYIQAPGKEREFVASITYRGGRTYYADSVKGRFTISRDNAKNTFFLQMNSLKPEDTAVYYCAARTRAGAWTSKYHDYWGQGTQVNVSS”, the “polyreactivity (PSR sort gate)” value is recorded as “high polyreactivity”.
